Test results taken from patent US20130078247A1.
Where two headings read alike, the source gives them in different places. One block for each substance: values may come before it.

Assays:
mouse Ang2 (mouse) [1] = biological target: mouse Ang2 (mouse) (UniProt O35608); assay: competition ELISA: mAng2 binding to mTie2
human Ang2 (human) [2] = biological target: human Ang2 (human) (UniProt O15123); assay: competition ELISA hAng2/hTie2-Fc, with 0.5 uM HSA [continued]
human Ang2 (human) [3] = biological target: human Ang2 (human) (UniProt O15123); assay: competition ELISA hAng2/hTie2-Fc
human Ang2 (human) [4] = biological target: human Ang2 (human) (UniProt O15123); assay: competition ELISA: hAng2 binding to hTie2
mouse Ang2 (mouse) [5] = biological target: mouse Ang2 (mouse) (UniProt O35608); assay: competition ELISA: mAng2 binding to mTie2; remark: listed apart in the source
mouse Ang2 (mouse) [6] = biological target: mouse Ang2 (mouse) (UniProt O35608); assay: competition ELISA: mAng2 binding to mTie2; remark: listed apart in the source
human Ang2 (human) [7] = biological target: human Ang2 (human) (UniProt O15123); assay: competition ELISA hAng2/hTie2-Fc; remark: listed apart in the source
human Ang2 (human) [8] = biological target: human Ang2 (human) (UniProt O15123); assay: competition ELISA hAng2/hTie2-Fc, with 0.5 uM HSA [continued]; remark: listed apart in the source
mouse Ang2 (mouse) [9] = biological target: mouse Ang2 (mouse) (UniProt O35608); assay: competition ELISA: mAng2 binding to mTie2; remark: listed apart in the source
[10] = biological target: recombinant human DLL4 extracellular domain, C-terminally His-tagged (R&D Systems) (human) (UniProt Q9NR61); assay: competition ELISA: 8 nM biotinylated hDLL4 + binder, residual binding to coated hNotch1-Fc
[11] = biological target: human DLL4, full length, overexpressed on CHO or HEK293 cells (human) (UniProt Q9NR61); assay: competition FMAT: labelled hNotch1/Fc binding to CHO-hDLL4 cells; panel '+ HSA', HSA not marked for this curve [continued]
[12] = biological target: mouse DLL4, full length, overexpressed on CHO or HEK293 cells (mouse) (UniProt Q9JI71); assay: competition FMAT: labelled hNotch1-Fc on CHO-mDLL4 cells
Sequence of mouse DLL4, full length, overexpressed on CHO or HEK293 cells (mouse) (Q9JI71 27-686): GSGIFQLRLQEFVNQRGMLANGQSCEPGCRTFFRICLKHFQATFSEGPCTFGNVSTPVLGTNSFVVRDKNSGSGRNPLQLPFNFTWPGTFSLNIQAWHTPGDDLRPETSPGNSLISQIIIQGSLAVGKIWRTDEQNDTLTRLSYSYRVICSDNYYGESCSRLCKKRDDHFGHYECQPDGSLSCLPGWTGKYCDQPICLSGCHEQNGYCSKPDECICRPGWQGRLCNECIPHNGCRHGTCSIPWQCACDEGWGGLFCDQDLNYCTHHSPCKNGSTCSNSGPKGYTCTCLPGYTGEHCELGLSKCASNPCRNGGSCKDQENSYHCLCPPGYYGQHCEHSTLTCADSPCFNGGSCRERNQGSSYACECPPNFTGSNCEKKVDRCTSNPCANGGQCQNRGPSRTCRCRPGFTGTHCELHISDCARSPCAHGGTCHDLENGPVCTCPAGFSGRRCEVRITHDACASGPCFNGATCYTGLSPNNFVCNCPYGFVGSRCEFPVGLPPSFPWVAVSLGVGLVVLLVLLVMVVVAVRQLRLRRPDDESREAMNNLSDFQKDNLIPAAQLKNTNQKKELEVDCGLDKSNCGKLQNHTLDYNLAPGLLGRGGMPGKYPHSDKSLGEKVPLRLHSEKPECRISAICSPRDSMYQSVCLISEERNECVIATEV

[13] = biological target: recombinant human DLL4 extracellular domain, C-terminally His-tagged (R&D Systems) (human) (UniProt Q9NR61); assay: binding ELISA on coated rhDLL4
[14] = biological target: human DLL4, full length, overexpressed on CHO or HEK293 cells (human) (UniProt Q9NR61); assay: FMAT, Notch1/Fc on CHO-hDLL4
[15] = biological target: human DLL4, full length, overexpressed on CHO or HEK293 cells (human) (UniProt Q9NR61); assay: competition FMAT: labelled hNotch1-Fc on CHO-hDLL4 cells, with 25 uM HSA [continued]
[16] = biological target: mouse DLL4, full length, overexpressed on CHO or HEK293 cells (mouse) (UniProt Q9JI71); assay: FMAT, Notch1/Fc on CHO-mDLL4
[17] = biological target: human DLL4, full length, overexpressed on CHO or HEK293 cells (human) (UniProt Q9NR61); assay: competition FMAT: labelled hNotch1/Fc binding to CHO-hDLL4 cells
[18] = biological target: mouse DLL4, full length, overexpressed on CHO or HEK293 cells (mouse) (UniProt Q9JI71); assay: competition FMAT: labelled hNotch1-Fc on CHO-mDLL4 cells; remark: listed apart in the source
[19] = biological target: mouse DLL4, full length, overexpressed on CHO or HEK293 cells (mouse) (UniProt Q9JI71); assay: competition FMAT: labelled hNotch1-Fc on CHO-mDLL4 cells, with 25 uM HSA [continued]
[20] = biological target: human DLL4, full length, overexpressed on CHO or HEK293 cells (human) (UniProt Q9NR61); assay: cell-based or functional assay
[21] = biological target: human DLL4, full length, overexpressed on CHO or HEK293 cells (human) (UniProt Q9NR61); assay: competition FMAT: labelled hNotch1-Fc on CHO-hDLL4 cells
[22] = biological target: recombinant mouse DLL4 extracellular domain, C-terminally His-tagged (R&D Systems) (mouse) (UniProt Q9JI71); assay: binding ELISA on coated rmDLL4
Sequence of recombinant mouse DLL4 extracellular domain, C-terminally His-tagged (R&D Systems) (mouse) (Q9JI71 27-525 limits assumed): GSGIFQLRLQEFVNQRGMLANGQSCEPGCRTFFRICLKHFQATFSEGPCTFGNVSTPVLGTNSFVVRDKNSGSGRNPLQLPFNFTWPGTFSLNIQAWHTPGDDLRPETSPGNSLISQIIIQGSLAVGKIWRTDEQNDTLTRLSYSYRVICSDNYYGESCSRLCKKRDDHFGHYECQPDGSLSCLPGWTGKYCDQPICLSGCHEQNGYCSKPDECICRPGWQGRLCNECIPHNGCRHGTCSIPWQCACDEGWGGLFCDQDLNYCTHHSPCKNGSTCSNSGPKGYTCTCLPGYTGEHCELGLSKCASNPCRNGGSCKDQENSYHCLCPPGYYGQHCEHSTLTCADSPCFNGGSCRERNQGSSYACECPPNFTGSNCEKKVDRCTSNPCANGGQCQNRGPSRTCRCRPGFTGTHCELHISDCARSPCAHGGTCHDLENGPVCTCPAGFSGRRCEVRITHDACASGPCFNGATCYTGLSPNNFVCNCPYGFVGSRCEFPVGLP

[23] = biological target: recombinant human DLL4 extracellular domain, C-terminally His-tagged (R&D Systems) (human) (UniProt Q9NR61); assay: competition ELISA: 8 nM biotinylated hDLL4 + binder, residual binding to coated hNotch1-Fc; remark: listed apart in the source
[24] = biological target: human DLL4, full length, overexpressed on CHO or HEK293 cells (human) (UniProt Q9NR61); assay: competition FMAT: labelled hNotch1-Fc on CHO-hDLL4 cells; remark: listed apart in the source
[25] = biological target: mouse DLL4, full length, overexpressed on CHO or HEK293 cells (mouse) (UniProt Q9JI71); assay: competition FMAT: labelled hNotch1/Fc binding to CHO-mDLL4 cells; panel '+ HSA', HSA not marked for this curve [continued]
[26] = biological target: recombinant human DLL4 extracellular domain, C-terminally His-tagged (R&D Systems) (human) (UniProt Q9NR61); assay: hDLL4/hNotch1 competition AlphaScreen
[27] = biological target: recombinant human DLL4 extracellular domain, C-terminally His-tagged (R&D Systems) (human) (UniProt Q9NR61); assay: competition ELISA: 8 nM biotinylated hDLL4 binding to coated hNotch1/Fc
[28] = biological target: mouse DLL4, full length, overexpressed on CHO or HEK293 cells (mouse) (UniProt Q9JI71); assay: competition FMAT: labelled hNotch1/Fc binding to CHO-mDLL4 cells
[29] = biological target: mouse DLL4, full length, overexpressed on CHO or HEK293 cells (mouse) (UniProt Q9JI71); assay: competition FMAT: labelled hNotch1-Fc on CHO-mDLL4 cells, with 25 uM HSA [continued]; remark: listed apart in the source
[30] = biological target: mouse DLL4, full length, overexpressed on CHO or HEK293 cells (mouse) (UniProt Q9JI71); assay: competition FMAT: labelled hNotch1/Fc binding to CHO-mDLL4 cells; panel '+ HSA', HSA not marked for this curve [continued]; remark: listed apart in the source
[31] = biological target: human DLL4, full length, overexpressed on CHO or HEK293 cells (human) (UniProt Q9NR61); assay: competition FMAT: labelled hNotch1-Fc on CHO-hDLL4 cells, with 25 uM HSA [continued]; remark: listed apart in the source
[32] = biological target: mouse DLL4, full length, overexpressed on CHO or HEK293 cells (mouse) (UniProt Q9JI71); assay: competition FMAT: labelled hNotch1/Fc binding to CHO-mDLL4 cells; remark: listed apart in the source
[33] = biological target: recombinant human DLL4 extracellular domain, C-terminally His-tagged (R&D Systems) (human) (UniProt Q9NR61); assay: hDLL4/hNotch1-Fc competition ELISA

Sequence of mouse Ang2 (mouse) (O35608 19-496 limits assumed): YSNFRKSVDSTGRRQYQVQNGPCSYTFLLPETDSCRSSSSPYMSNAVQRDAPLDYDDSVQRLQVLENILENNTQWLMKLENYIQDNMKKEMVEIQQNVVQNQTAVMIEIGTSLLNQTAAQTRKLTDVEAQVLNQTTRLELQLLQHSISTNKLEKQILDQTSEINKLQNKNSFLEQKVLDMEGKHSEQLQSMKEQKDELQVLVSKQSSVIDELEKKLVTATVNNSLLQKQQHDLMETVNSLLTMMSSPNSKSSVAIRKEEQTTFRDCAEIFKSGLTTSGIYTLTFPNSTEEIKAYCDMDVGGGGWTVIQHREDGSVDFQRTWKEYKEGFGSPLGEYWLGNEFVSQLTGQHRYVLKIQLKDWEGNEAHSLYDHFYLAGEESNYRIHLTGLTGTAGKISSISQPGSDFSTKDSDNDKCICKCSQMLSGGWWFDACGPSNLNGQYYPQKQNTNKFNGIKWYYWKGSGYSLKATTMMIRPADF
Sequence of human Ang2 (human) (O15123 19-496 limits assumed): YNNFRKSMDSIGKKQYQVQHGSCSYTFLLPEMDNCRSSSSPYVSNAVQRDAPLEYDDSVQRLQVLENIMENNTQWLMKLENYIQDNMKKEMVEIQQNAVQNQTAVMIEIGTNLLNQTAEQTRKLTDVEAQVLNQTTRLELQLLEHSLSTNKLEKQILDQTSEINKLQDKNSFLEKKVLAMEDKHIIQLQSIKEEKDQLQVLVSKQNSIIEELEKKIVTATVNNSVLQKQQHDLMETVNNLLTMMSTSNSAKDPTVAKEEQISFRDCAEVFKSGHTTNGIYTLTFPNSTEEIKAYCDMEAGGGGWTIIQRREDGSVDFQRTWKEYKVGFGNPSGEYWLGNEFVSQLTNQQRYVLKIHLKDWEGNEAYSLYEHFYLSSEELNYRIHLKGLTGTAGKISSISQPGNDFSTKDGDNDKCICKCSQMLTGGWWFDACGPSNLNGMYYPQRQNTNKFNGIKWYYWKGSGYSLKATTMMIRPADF

IC50 (read off the curve) (mouse Ang2 (mouse) [1]): 0.009 nM
IC50 (read off the curve) (human Ang2 (human) [2]): 0.004 nM
IC50 (read off the curve) (human Ang2 (human) [3]): 0.005 nM
IC50 (read off the curve) (human Ang2 (human) [4]): 0.003 nM
IC50 (read off the curve) (mouse Ang2 (mouse) [5]): 0.003 nM
IC50 (read off the curve) (mouse Ang2 (mouse) [6]): 0.004 nM
IC50 (read off the curve) (human Ang2 (human) [7]): 0.004 nM
IC50 (read off the curve) (human Ang2 (human) [8]): 0.005 nM
IC50 (read off the curve) (mouse Ang2 (mouse) [9]): 0.007 nM
Substance: AMG386

IC50 (read off the curve) [10]: 4 nM
IC50 (read off the curve) [11]: 3 nM
IC50 (read off the curve) [12]: 2 nM
EC50 (read off the curve) [13]: 0.8 nM
IC50 [14]: 5.4 nM
IC50 (read off the curve) [15]: 7 nM
IC50 [16]: 2.3 nM
IC50 (read off the curve) [17]: 4 nM
IC50 (read off the curve) [18]: 1 nM
IC50 (read off the curve) [19]: 1 nM
IC50, DLL4/Notch1 reporter assay (luciferase; co-culture with HEK293-hDII4) [20]: 133 nM
IC50 (read off the curve) [21]: 5 nM
EC50 (read off the curve) [22]: 0.9 nM
IC50 (read off the curve) [23]: 5 nM
IC50 (read off the curve) [24]: 7 nM
IC50 (read off the curve) [25]: 2 nM
IC50 [26]: 0.3 nM
IC50 (read off the curve) [27]: 3 nM
IC50 (read off the curve) [28]: 3 nM
IC50 (read off the curve) [29]: 2 nM
IC50 (read off the curve) [30]: 3 nM
IC50 (read off the curve) [31]: 4 nM
IC50 (read off the curve) [32]: 2 nM
IC50 [33]: 0.7 nM
Substance: anti-DLL4 Fab fragment (Fab of the Genentech DII4 mAb of US 2008/0014196)
